Source: paper PMC6960015

Target: GST-ArhGAP12 ΔNΔP R582A (mouse (NIH 3T3 cDNA library)) (UniProt S4R248)
Assay: BLI

Substance: Rabbit skeletal muscle LatB-actin (from UniProt P68135 1-377) (natural protein)
- fold reduction of binding affinity against wild type: 1300 fold
